Results on 1 substance are retold here after paper PMC5372246, “Co-production of hydrogen and ethanol from glucose in Escherichia coli by activation of pentose-phosphate pathway through deletion of phosphoglucose isomerase (pgi) and overexpression of glucose-6-phosphate dehydrogenase (zwf) and 6-phosphogluconate dehydrogenase (gnd)” (Biotechnology for Biofuels, 2017).

One may read the Km as the substrate concentration at which the rate is half of its maximum.

The subject of this data set is T1, NC(=O)c1ccc[n+]([C@@H]2O[C@H](COP(=O)(O)OP(=O)(O)OC[C@H]3O[C@@H](n4cnc5c(N)ncnc54)[C@H](OP(=O)(O)O)[C@@H]3O)[C@@H](O)[C@H]2O)c1.
T1 construct: full-length, C-terminal His-tag, Ni-NTA purified from E. coli, 55 kDa on SDS-PAGE
Nature of the data set: purified protein. The settings on record: co-substrate glucose-6-phosphate, general assay: Tris-HCl pH 7.5, 1 mM MgCl2, 30 °C. The data set is classed as biochemical, Escherichia coli.

“Zwf (ZE), glucose-6-phosphate dehydrogenase (Escherichia coli K-12)”: the Km came out at 15 µM.
